How the values were obtained:
[1] = Biodistribution in vivo and PET in healthy mice; conditions: in vivo; for tissue uptake at 0.5 h / tissue uptake at 1 h: male, C57BL/6, mouse, 2 MBq, total radioactivity, Biodistribution, healthy male C57BL/6 mice, penile vein injection, gamma counter, mean of n = 3; for tissue uptake at 0.5 h: 30 min; for tissue uptake at 1 h: 60 min
Method: All murine experiments were approved by the Animal Care and Use Committee of the University of Groningen under license protocol number 2114768-01-001. In vivo biodistribution was performed in male C57BL/6 mice (age 8 weeks, 25 g). Per tracer, the animals were divided in three groups based on the tracer distribution times (30 min, 60 min, and 90 min). […] Each experimental arm (i.e. time point) consisted of three animals. […] Tracer was administered at t = 0 via penile vein injection (2.0 ± 0.9 MBq in 100 µL 0.9% saline solution, Supplemental Table 2). After tracer administration, the animals were transferred to a Siemens Focus 220 microPET small animal scanner (Siemens, Munich, Germany) and scanned for the designated time, followed by a transmission scan of 10 min for attenuation correction. PET data were normalized and corrected for decay, after which the PET data were reconstructed using OSEM2D-Z1-SC-256. The PET data frames used for reconstruction were: 6 × 10 s, 4 × 30 s, 2 × 60 s, 120 s, 180 s, 4 × 300 s, 3 × 600 s, 1200 s or until the designated scan time was reached, taking into account a 10-min transmission scan following the emission scan. Next, animals were terminated, and organs harvested to assay biodistribution in a calibrated gamma counter (Wizard2, Perkin Elmer, Waltham, United States).

[2] = Summary of tracer stability in vitro and in vivo
Method: Stability of the tracers was determined in PBS and human plasma. In a typical experiment, 1 MBq of radioactivity (10–20 µL) was added to 250 µL of PBS or human plasma. Samples were heated to 37 °C on a shaker and sampled at fixed intervals. For samples containing human plasma, protein was precipitated using two volumes of cold MeCN. Precipitated samples were briefly centrifuged to pellet the insoluble fraction and supernatant was used for stability assessment. Supernatant (1 µL) was loaded on a TLC plate and imaged using BAS-IP MS 2025 E plates (Fujifilm, Tokyo, Japan) on an Amersham Typhoon Biomolecular Imager (GE Healthcare Bio-Sciences Corp, Chicago, United States) equipped with a phosphor imaging stage. [^18F]BODIPY-FL-vancomycin has an Rf of 0.68 (petroleum ether/MeOH 3:1), [^18F]FB-vancomycin has an Rf of 0.66 (2 M NaOAc/MeOH 5:1). For [^18F]PQ-VE1-vancomycin, conditions described in [44] were used.

[3] = Distribution coefficient LogD7.4, shake-flask n-octanol/PBS; type: physicochemical; conditions: shake-flask n-octanol/PBS pH 7.4, 500 µL each, 10 µL tracer in saline, vortexed 30 s, shaken 15 min, gamma counter, mean ± SD
Method: The tracer distribution coefficient in n-octanol/PBS pH 7.4 (LogD7.4) was determined using a shake-flask methodology. To an Eppendorf tube containing 500 µL n-octanol and 500 µL PBS, 10 µL tracer solution in saline was added. The vial was vortexed for 30 s and placed on an Eppendorf shaker for 15 min. After incubation, layers were separated by centrifugation (1 min at 10.000 rpm) and a fraction of the n-octanol layer was pipetted off. To minimize contamination of the bottom layer with the n-octanol layer, the bottom PBS layer was collected by puncturing the bottom of the Eppendorf tube with a 22G needle and aspirating a fraction of the PBS layer. Collected fractions were weighted to correct for collected volume and subsequently measured on a calibrated gamma counter and corrected for decay. LogD7.4 was calculated as [drawing 1] .

For `CC(C)C[C@H](C(=O)N[C@H]1C(=O)N[C@@H](CC(N)=O)C(=O)N[C@H]2C(=O)N[C@H]3C(=O)N[C@H](C(=O)N[C@H](C(=O)O)c4cc(O)cc(O)c4-c4cc3ccc4O)[C@H](O)c3ccc(c(Cl)c3)Oc3cc2cc(c3O[C@@H]2O[C@H](CO)[C@@H](O)[C@H](O)[C@H]2O[C@H]2C[C@](C)(N)[C@H](O)[C@H](C)O2)Oc2ccc(cc2Cl)[C@H]1O)N(C)C(=O)c1ccc(F)cc1` [[^18F]FB-vancomycin], the tissue uptake at 0.5 h ([1]; iv, Bladder) was 21.8 %ID/g, the tissue uptake at 1 h ([1]; iv, Bladder) was 18.5 %ID/g and the tissue uptake at 0.5 h ([1]; iv, Bone) was 0.06 %ID/g. It also gave a tissue uptake at 1 h ([1]; iv, Bone) of 0.04 %ID/g, a tissue uptake at 0.5 h ([1]; iv, Brain) of 0.05 %ID/g and a tissue uptake at 1 h ([1]; iv, Brain) of 0.05 %ID/g. The tissue uptake at 0.5 h ([1]; iv, Fat) was 0.54 %ID/g, the tissue uptake at 1 h ([1]; iv, Fat) was 0.26 %ID/g and the tissue uptake at 0.5 h ([1]; iv, Heart) was 0.11 %ID/g. For the same compound, the tissue uptake at 1 h ([1]; iv, Heart) was 0.22 %ID/g, the tissue uptake at 0.5 h ([1]; iv, Kidneys) was 1.01 %ID/g and the tissue uptake at 1 h ([1]; iv, Kidneys) was 0.45 %ID/g. It also gave a tissue uptake at 0.5 h ([1]; iv, Large intestine) of 0.25 %ID/g, a tissue uptake at 1 h ([1]; iv, Large intestine) of 0.37 %ID/g and a tissue uptake at 0.5 h ([1]; iv, Liver) of 0.15 %ID/g. For the same compound, the tissue uptake at 1 h ([1]; iv, Liver) was 0.1 %ID/g, the tissue uptake at 0.5 h ([1]; iv, Lungs) was 0.2 %ID/g and the tissue uptake at 1 h ([1]; iv, Lungs) was 0.14 %ID/g. It also gave a tissue uptake at 0.5 h ([1]; iv, Muscle) of 0.14 %ID/g, a tissue uptake at 1 h ([1]; iv, Muscle) of 0.12 %ID/g and a tissue uptake at 0.5 h ([1]; iv, Plasma) of 0.29 %ID/g. It also gave a tissue uptake at 1 h ([1]; iv, Plasma) of 0.15 %ID/g, a tissue uptake at 0.5 h ([1]; iv, Small intestine) of 0.3 %ID/g and a tissue uptake at 1 h ([1]; iv, Small intestine) of 0.19 %ID/g. For the same compound, the tissue uptake at 0.5 h ([1]; iv, Spleen) was 0.14 %ID/g, the tissue uptake at 1 h ([1]; iv, Spleen) was 0.09 %ID/g and the tissue uptake at 0.5 h ([1]; iv, Stomach) was 0.1 %ID/g. It also gave a tissue uptake at 1 h ([1]; iv, Stomach) of 0.21 %ID/g, a tissue uptake at 0.5 h ([1]; iv, Whole blood) of 0.2 %ID/g and a tissue uptake at 1 h ([1]; iv, Whole blood) of 0.1 %ID/g. For the same compound, the Accumulation ([1]; mouse) was “No accumulation in tissues, only in urine”, the Clearance ([1]; mouse) was “Rapid renal clearance” and the In vivo stability ([1]; mouse, iv) was “poor in vivo stability”. The Stability [2] was “Rapidly degraded in vitro and in vivo” and the LogD7.4 [3] was -0.96 ± 0.03 (n = 12).

Reference: PMC11224109, “Synthesis and preclinical evaluation of novel ^18F-vancomycin-based tracers for the detection of bacterial infections using positron emission tomography” (European Journal of Nuclear Medicine and Molecular Imaging, 2024)
